Experimental data: patent US20150025225A1 (SHIONOGI, published 2015)

Assays:
[1] = target: T1, cynomolgus monkey EL-C2 tag (cynomolgus monkey, UniProt Q9Y5X9 21-500 (human entry), limits assumed); assay: ELISA-type titration, A450 against antibody concentration; protocol not described in the text
T1 construct: used as heparin extract of transfected HEK293F cells; also called cynomolgus EL
T1 chain: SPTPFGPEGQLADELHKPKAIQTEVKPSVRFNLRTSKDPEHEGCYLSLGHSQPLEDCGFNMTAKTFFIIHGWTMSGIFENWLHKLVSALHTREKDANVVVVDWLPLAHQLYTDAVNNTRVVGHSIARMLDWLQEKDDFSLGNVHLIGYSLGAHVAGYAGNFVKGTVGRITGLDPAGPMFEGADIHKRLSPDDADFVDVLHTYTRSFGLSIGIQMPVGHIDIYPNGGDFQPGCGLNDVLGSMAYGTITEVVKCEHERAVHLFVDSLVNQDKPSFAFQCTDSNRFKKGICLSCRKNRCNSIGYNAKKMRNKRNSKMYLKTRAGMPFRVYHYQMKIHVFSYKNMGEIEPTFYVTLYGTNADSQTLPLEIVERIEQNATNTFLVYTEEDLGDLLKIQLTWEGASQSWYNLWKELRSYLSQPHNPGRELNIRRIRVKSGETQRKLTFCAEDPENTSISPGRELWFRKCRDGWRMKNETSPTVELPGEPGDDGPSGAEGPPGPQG

mouse EL-C2 tag = target: T2, mouse EL-C2 tag (mouse, UniProt Q9WVG5 21-500); assay: as above
T2 construct: used as heparin extract of transfected HEK293F cells
T2 sequence: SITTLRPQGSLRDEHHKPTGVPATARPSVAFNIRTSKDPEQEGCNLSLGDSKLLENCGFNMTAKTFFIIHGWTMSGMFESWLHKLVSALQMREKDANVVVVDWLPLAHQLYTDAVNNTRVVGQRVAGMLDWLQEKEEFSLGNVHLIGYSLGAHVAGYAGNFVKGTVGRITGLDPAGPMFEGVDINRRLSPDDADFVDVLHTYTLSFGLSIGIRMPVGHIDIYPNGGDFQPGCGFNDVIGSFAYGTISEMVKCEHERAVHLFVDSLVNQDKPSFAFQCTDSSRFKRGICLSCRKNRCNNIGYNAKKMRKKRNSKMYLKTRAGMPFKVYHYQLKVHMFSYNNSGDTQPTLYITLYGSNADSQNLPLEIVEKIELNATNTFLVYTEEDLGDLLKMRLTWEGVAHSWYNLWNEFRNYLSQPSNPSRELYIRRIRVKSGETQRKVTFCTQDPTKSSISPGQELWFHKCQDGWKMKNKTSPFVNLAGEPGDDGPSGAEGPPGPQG

- EC50 (read off the curve) [1]: ~6 ng/mL
- binding result (mouse EL-C2 tag): binds
B1: 47B2 antibody (antibody, IgG2a, V domains shown)
VH: QVALKESGPGILQPSQTLSLTCSFSGFSLSTSGMGVGWIRQPSGKGLEWLAHIWWHGNKYYSTGLKSRLTISKDTSNNQVFLKIASVDTADTATYYCARISAGYPLDYWGQGTSVTVSS
VL: DIQMTQSPSSLSASLGGKVTITCKASQDINKYIVWYQHKPGKGPRLLIHYTSTLQPGFPSRFSGSGSGRDYSLSITNLEPEDIATYYCLQYDNLLWTFGGGTKLEIK
